What all share (assay): cell-based or functional assay
For assay [1], the target named is T1, type I interferon-α/β receptor (IFNAR), composed of the IFNAR1 and IFNAR2 subunits (human) (UniProt P17181).
T1 sequence (looked up) 1: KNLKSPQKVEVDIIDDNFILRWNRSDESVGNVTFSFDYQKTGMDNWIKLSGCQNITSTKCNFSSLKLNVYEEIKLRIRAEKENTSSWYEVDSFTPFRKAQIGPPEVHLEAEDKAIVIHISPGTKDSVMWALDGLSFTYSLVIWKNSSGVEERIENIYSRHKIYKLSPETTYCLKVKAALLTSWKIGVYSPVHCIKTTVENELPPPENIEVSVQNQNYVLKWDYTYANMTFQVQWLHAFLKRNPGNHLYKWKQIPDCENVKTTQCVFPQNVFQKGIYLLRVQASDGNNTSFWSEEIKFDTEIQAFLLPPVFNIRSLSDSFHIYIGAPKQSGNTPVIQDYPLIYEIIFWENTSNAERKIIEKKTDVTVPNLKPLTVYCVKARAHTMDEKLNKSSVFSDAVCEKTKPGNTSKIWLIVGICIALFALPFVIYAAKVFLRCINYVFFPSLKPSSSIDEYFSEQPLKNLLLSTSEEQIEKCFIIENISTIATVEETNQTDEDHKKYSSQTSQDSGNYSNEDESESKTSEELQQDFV
T1 sequence (looked up) 2: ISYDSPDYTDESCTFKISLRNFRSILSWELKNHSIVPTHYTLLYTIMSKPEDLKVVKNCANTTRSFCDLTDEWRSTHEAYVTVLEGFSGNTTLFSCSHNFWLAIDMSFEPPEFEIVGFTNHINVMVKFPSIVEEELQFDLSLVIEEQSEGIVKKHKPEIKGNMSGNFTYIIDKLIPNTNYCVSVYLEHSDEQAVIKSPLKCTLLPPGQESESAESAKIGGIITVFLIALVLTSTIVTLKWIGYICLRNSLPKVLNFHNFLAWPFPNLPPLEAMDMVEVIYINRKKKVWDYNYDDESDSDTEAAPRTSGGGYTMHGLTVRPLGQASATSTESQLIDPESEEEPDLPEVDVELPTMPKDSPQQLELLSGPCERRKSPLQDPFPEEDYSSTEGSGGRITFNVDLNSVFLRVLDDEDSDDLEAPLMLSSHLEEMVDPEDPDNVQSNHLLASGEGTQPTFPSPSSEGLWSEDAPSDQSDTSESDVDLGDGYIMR

In another assay the target is T2, human CD20 (human) (UniProt P11836).
T2 sequence (looked up): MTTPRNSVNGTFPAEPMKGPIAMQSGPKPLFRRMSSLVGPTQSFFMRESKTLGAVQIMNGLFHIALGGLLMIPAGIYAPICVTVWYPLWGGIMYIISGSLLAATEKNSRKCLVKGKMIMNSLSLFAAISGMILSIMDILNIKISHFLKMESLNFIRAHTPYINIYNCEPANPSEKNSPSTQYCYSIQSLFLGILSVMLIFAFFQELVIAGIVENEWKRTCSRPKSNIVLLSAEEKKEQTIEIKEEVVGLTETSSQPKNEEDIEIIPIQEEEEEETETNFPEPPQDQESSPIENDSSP

The target in assay [2] is T1, type I interferon-α/β receptor (IFNAR), composed of the IFNAR1 and IFNAR2 subunits (human). The source holds these as a separate data set.

Where two headings read alike, the source gives them in different places.

Take “wild type human IFN-β (from UniProt P01574 22-187) (ligand)”: in assay [1], the EC50 for pSTAT1 in CD19 negative cells of human PBMCs was 0.592 ng/ml and the EC50 for pSTAT1 in CD19 positive cells of human PBMCs is 0.422 ng/ml.

B1: huCD20 VHH-20*GGS-huIFNβ-6*His, wild type hIFNβ coupled to anti-huCD20 VHH (P-126) (protein)
chain: QVQLQESGGGLAQAGGSLRLSCAASGRTFSMGWFRQAPGKEREFVAAITYSGGSPYYASSVRGRFTISRDNAKNTVYLQMNSLKPEDTAVYYCAANPTYGSDWNAENWGQGTQVTVSSGGSGGSGGSGGSGGSGGSGGSGGSGGSGGSGGSGGSGGSGGSGGSGGSGGSGGSGGSGGSMSYNLLGFLQRSSNFQCQKLLWQLNGRLEYCLKDRMNFDIPEEIKQLQQFQKEDAALTIYEMLQNIFAIFRQDSSSTGWNETIVENLLANVYHQINHLKTVLEEKLEKEDFTRGKLMSSLHLKRYYGRILHYLKAKEYSHCAWTIVRVEILRNFYFINRLTGYLRNHHHHHH
For B1, in the assay with human CD20 (human), the EC50 for pSTAT1 in CD19 positive (CD20 positive B) cells of human PBMCs is 97 ng/ml; the Targeting effect (EC50 on CD19 negative cells divided by that on CD19 positive cells) is 7.1 fold; the targeting effect, anti-proliferative activity on Daudi (CD20 positive) versus Wish (CD20 negative) cells turned out to be 24.3 fold. For the same molecule, the EC50 for pSTAT1 in CD19 negative cells of human PBMCs in assay [2] turned out to be 687 ng/ml.

Source of the values: patent US20190194284A1.
